Results on three substances are retold here after article PMC11760725.

The target in data set [1] is T1, Reb1 (Saccharomyces cerevisiae) (UniProt P21538).
T1 sequence: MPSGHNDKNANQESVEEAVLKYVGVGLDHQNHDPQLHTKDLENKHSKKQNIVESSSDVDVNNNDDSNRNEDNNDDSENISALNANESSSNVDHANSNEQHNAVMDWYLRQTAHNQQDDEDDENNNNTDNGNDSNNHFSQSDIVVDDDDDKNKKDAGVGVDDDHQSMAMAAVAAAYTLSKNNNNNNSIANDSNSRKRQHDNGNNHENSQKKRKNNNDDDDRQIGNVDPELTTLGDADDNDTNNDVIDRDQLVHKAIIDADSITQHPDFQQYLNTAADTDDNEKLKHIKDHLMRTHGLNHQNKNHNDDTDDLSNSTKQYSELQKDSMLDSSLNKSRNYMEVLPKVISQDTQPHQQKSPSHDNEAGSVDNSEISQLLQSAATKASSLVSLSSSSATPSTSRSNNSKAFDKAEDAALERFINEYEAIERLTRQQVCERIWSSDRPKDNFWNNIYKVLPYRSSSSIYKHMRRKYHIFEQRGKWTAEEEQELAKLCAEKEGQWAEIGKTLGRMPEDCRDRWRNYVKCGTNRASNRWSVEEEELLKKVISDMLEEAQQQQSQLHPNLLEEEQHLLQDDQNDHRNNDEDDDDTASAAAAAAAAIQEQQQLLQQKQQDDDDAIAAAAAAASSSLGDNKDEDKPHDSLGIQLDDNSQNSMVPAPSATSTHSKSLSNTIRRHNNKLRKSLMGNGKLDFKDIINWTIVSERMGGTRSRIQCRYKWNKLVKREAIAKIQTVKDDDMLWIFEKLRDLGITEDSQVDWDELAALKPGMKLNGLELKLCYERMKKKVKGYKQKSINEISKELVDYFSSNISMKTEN
In words: ensemble FRET.

The target of data set [2] is Cbf1 (Saccharomyces cerevisiae) (UniProt P17106). In words: ensemble FRET.
Data set [3] shares this target. In words: EMSA.

UniProt P17106, sequence (P17106 whole entry): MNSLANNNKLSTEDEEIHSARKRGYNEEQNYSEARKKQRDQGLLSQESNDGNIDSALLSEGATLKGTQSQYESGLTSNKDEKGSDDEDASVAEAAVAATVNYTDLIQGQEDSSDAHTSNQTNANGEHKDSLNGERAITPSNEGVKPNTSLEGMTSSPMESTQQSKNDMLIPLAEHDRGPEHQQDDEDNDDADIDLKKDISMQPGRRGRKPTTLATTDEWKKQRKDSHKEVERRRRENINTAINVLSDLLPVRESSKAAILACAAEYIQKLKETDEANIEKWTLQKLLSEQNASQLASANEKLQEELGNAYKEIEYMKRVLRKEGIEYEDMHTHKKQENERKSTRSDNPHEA

For “601 Reb1p8 Cy3-proximal 207 bp nucleosome”, the K half in data set [1] came to 0.75 nM.
As to “GCTTTGACCGGGTAACACGAACAGAAAGATGGAGGAGACCAATCAGTCAGTGAATCAGATGCTGATGAAGGCTGGGAAGATATTCCTGTCTACGTTAAAGCCTTTGCAGAGTTTGAATCAAAGAAAAGATTACAAAAAATTCGCCGACAGGAAGAAATAAAAAAGAGGACAGCTTTGGTTTGAAGCAAATATATATTATTGAAAAGC (double strand) [YNN1 Reb1p8 Cy3-proximal 207 bp nucleosome]”, in data set [1], the K half is 1.5 nM.
With “GCTTTGAGGTCACGTGACCAACAGAAAGATGGAGGAGACCAATCAGTCAGTGAATCAGATGCTGATGAAGGCTGGGAAGATATTCCTGTCTACGTTAAAGCCTTTGCAGAGTTTGAATCAAAGAAAAGATTACAAAAAATTCGCCGACAGGAAGAAATAAAAAAGAGGACAGCTTTGGTTTGAAGCAAATATATATTATTGAAAAGC (double strand) [YNN1 Cbf1p8 nucleosome]”, the K half in data set [2] is 1.5 nM; in data set [3], 0.8 nM.
